For the test, the target named is human IL‐4Rα (human, UniProt P24394, N‐glycosylation sites (modelled in the crystal structure; positions not given)). Description: cell-based or functional assay.

B1: dAb1 (VHH)
VHH: QVQLVESGGGLVQPGGSLRLSCAASGDFYCMAWFRQAPGKEREAVAAIRSGGRSTYYADSVKGRFTISRDNSKNTLYLQMNSLKAEDTAVYYCAVGVDGNCRNYWGQGTLVTVSS
As for B1, the “IC50 in the IL‐4‐induced TF‐1 cell proliferation assay (blocks IL‐4 with IL‐4Rα)” value is approximately 150 pM and the “IC50 in the IL‐13‐induced TF‐1 cell proliferation assay (blocks IL‐13 with IL‐4Rα)” value is approximately 150 pM.

Values taken from paper PMC11381654, “Structural insight into interleukin‐4Rα and interleukin‐5 inhibition by nanobodies from a bispecific antibody” (MedComm, 2020).
